Laboratory results from PMC2680549.

Biological target: N-terminal domain of Bag2 (Bag2-NTD)
Test: SEC

N-terminal domain of Bag2 (Bag2-NTD) (domain or fragment), sequence (Q91YN9 104-194): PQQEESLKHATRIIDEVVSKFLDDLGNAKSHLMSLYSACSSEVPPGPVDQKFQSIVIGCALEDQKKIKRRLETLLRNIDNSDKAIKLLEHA

“N-terminal domain of Bag2 (Bag2-NTD) (domain or fragment)” was tested. Which stoichiometry N did it give?
Its stoichiometry N is 2.
